PMC3675359, “GxcC connects Rap and Rac signaling during Dictyostelium development” (BMC Cell Biology, 2013)

Molecular target: T1, NtermGxcC (aa 1-633), recombinant GST-ARM purified from E. coli (Dictyostelium discoideum, UniProt Q54P24 1-633)
T1 construct: GxcC, Dictyostelium discoideum, UniProt Q54P24; aa 1-633 as printed, from pGEX4T3; the cloning paragraph says that the N-terminal fragment of base pairs 1-1911 (637 codons) was ligated into pGEX 4T3; also called ARM domain of GxcC; purified GxcC ARM domain; not shown: GST, N-terminal, kept
T1 sequence (looked up): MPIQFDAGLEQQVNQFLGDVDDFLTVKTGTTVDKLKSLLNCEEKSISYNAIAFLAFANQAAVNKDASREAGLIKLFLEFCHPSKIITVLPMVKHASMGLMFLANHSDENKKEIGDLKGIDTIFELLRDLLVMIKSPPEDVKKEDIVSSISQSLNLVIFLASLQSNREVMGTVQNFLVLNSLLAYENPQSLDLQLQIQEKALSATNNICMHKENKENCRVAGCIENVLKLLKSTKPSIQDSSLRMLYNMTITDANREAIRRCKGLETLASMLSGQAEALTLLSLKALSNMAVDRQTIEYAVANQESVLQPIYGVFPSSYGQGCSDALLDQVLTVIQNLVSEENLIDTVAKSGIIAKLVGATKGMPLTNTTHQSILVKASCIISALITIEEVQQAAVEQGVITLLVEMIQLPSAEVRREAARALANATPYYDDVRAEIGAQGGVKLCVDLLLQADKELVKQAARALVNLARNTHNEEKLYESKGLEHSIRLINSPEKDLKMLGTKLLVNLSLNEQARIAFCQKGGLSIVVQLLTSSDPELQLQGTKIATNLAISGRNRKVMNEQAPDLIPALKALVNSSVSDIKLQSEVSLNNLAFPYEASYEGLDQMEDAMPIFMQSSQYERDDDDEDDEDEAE
Assay: guanine nucleotide dissociation inhibition (GDI) assay; G-protein loaded with mGppNHp incubated with an excess of unlabelled nucleotide; decay of fluorescence (kobs) at varying concentrations of GST-ARM
Details: both partners purified

B1: RapA purified from E. coli (loaded with mGppNHp or mGDP) (natural protein, Dictyostelium discoideum, UniProt P18613 1-186, looked up)
chain: MPLREFKIVVLGSGGVGKSALTVQFVQGIFVEKYDPTIEDSYRKQVEVDSNQCMLEILDTAGTEQFTAMRDLYMKNGQGFVLVYSIISNSTFNELPDLREQILRVKDCEDVPMVLVGNKCDLHDQRVISTEQGEELARKFGDCYFLEASAKNKVNVEQIFYNLIRQINRKNPVGPPSKAKSKCALL
notes: RapA, Dictyostelium discoideum; Loaded with the fluorescent nucleotide mGppNHp (or mGDP); It may be the GST-RapA of the screen with or without its GST; source: E. coli, purified
Kd: 13.3 µM
